{"source": "paper PMC4456606", "about": "“A conserved histidine modulates HSPB5 structure to trigger chaperone activity in response to stress-related acidosis” (eLife, 2015)", "binders": {"B1": {"name": "WT-HSPB5 (full-length HSPB5, alphaB-crystallin) (natural protein, human, UniProt P02511 1-175, looked up)", "chain": "MDIAIHHPWIRRPFFPFHSPSRLFDQFFGEHLLESDLFPTSTSLSPFYLRPPSFLRAPSWFDTGLSEMRLEKDRFSVNLDVKHFSPEELKVKVLGDVIEVHGKHEERQDEHGFISREFHRKYRIPADVDPLTITSSLSSDGVLTVNGPRKQVSGPERTIPITREEKPAVTAAPKK", "notes": "HSPB5 (alphaB-crystallin), human, full length; Forms polydisperse oligomers; also called αB-crystallin; source: expressed and purified as described previously (Jehle et al., 2009)"}, "B2": {"name": "H104Q-HSPB5 (full-length HSPB5 with His-104 replaced by Gln) (natural protein, human, UniProt P02511 1-175, looked up)", "chain": "MDIAIHHPWIRRPFFPFHSPSRLFDQFFGEHLLESDLFPTSTSLSPFYLRPPSFLRAPSWFDTGLSEMRLEKDRFSVNLDVKHFSPEELKVKVLGDVIEVHGKQEERQDEHGFISREFHRKYRIPADVDPLTITSSLSSDGVLTVNGPRKQVSGPERTIPITREEKPAVTAAPKK", "notes": "HSPB5 (alphaB-crystallin), human, full length, with H104Q; source: growth and purification similar to that of wild-type proteins (Jehle et al., 2009)"}, "B3": {"name": "H104K-HSPB5 (full-length HSPB5 with His-104 replaced by Lys) (natural protein, human, UniProt P02511 1-175, looked up)", "chain": "MDIAIHHPWIRRPFFPFHSPSRLFDQFFGEHLLESDLFPTSTSLSPFYLRPPSFLRAPSWFDTGLSEMRLEKDRFSVNLDVKHFSPEELKVKVLGDVIEVHGKKEERQDEHGFISREFHRKYRIPADVDPLTITSSLSSDGVLTVNGPRKQVSGPERTIPITREEKPAVTAAPKK", "notes": "HSPB5 (alphaB-crystallin), human, full length, with H104K; source: growth and purification similar to that of wild-type proteins (Jehle et al., 2009)"}}, "key": {"[1]": {"target": "the molecule itself", "experiment": "SEC-MALS; 40 μM subunits, pre-incubated at 37°C for 30 min; 50 mM sodium phosphate pH 7.5, 100 mM NaCl, 1 mM DTT; size of the oligomers"}, "[2]": {"target": "the molecule itself", "experiment": "SEC-MALS; 40 μM subunits, equilibrated at 37°C for at least 60 min; 50 mM sodium phosphate pH 6.5, 100 mM NaCl, 1 mM DTT; size of the oligomers"}, "[3]": {"target": "B2", "experiment": "SEC-MALS; HSPB5 (40 μM subunits) pre-incubated with αLac (240 μM in the methods, 120 μM in the legend) at 37°C, pH 7.5, 10 min, then 50 mM DTT for 50 min, filtered and injected; SDS-PAGE of peak fractions", "conditions": "both partners purified"}, "[4]": {"target": "B3", "experiment": "SEC-MALS; HSPB5 (40 μM subunits) pre-incubated with αLac (240 μM in the methods, 120 μM in the legend) at 37°C, pH 7.5, 10 min, then 50 mM DTT for 50 min, filtered and injected; SDS-PAGE of peak fractions", "conditions": "both partners purified"}, "[5]": {"target": "B1", "experiment": "SEC-MALS; WT- and H104K-HSPB5 incubated together at ratios 1:0, 2:1, 1:1, 1:2, 0:1; mixed oligomers", "conditions": "both partners purified"}, "[6]": {"target": "the molecule itself", "experiment": "ITC; dilution ITC, 1 mM WT-ACD, dimer to monomers; 37°C, pH 7.5, 50 mM sodium phosphate, 100 mM NaCl"}, "[7]": {"target": "the molecule itself", "experiment": "15N-CPMG relaxation dispersion NMR; 700 and 200 μM ACD, pH 7.5, 37°C; global fit of dimer interface residues; rate constants worked out with the KD of 36 μM from ITC; dimer to monomers"}, "[8]": {"target": "the molecule itself", "experiment": "ITC; dilution ITC, 1 mM WT-ACD, dimer to monomers; 25°C, pH 6.5, 50 mM sodium phosphate, 100 mM NaCl"}, "[9]": {"target": "the molecule itself", "experiment": "ITC; dilution ITC, 1 mM WT-ACD, dimer to monomers; 25°C, pH 7.5, 50 mM sodium phosphate, 100 mM NaCl"}, "[10]": {"target": "the molecule itself", "experiment": "1H-15N HSQC NMR; 200 μM ACD, pH 7.5, 22°C, NMR buffer; populations of dimer and monomer peaks; dimer to monomers"}}, "data": [{"binder": "B1", "values": [{"measurement": "stoichiometry N", "setting": "[1]", "value": "~24", "unit": "subunits"}, {"measurement": "stoichiometry N", "setting": "[2]", "value": "~36", "unit": "subunits per oligomer"}]}, {"binder": "bovine αLactalbumin (natural protein, UniProt P00711 20-142, looked up, alpha-lactalbumin, bovine, Sigma L6010; Model client protein; source: bought: Sigma (L6010)) EQLTKCEVFRELKDLKGYGGVSLPEWVCTTFHTSGYDTQAIVQNNDSTEYGLFQINNKIWCKDDQNPHSSNICNISCDKFLDDDLTDDIMCVKKILDKVGINYWLAHKALCSEKLDQWLCEKL", "values": [{"measurement": "binding result", "setting": "[3]", "value": "binds"}, {"measurement": "binding result", "setting": "[4]", "value": "binds"}]}, {"binder": "B2", "values": [{"measurement": "binding result", "setting": "[1]", "value": "binds"}]}, {"binder": "B3", "values": [{"measurement": "stoichiometry N", "setting": "[1]", "value": "~41", "unit": "subunits"}, {"measurement": "binding result", "setting": "[5]", "value": "binds"}]}, {"binder": "HSPB5-ACD (alpha-crystallin domain of HSPB5, residues 64-152) (domain or fragment, human, UniProt P02511 64-152, looked up, HSPB5 (alphaB-crystallin), human, alpha-crystallin domain, residues 64-152; 15N- or 13C,15N-labelled for the NMR experiments; also called WT-ACD; WT-HSPB5-ACD; source: expressed and purified as described previously (Jehle et al., 2009)) GLSEMRLEKDRFSVNLDVKHFSPEELKVKVLGDVIEVHGKHEERQDEHGFISREFHRKYRIPADVDPLTITSSLSSDGVLTVNGPRKQV", "values": [{"measurement": "Kd", "setting": "[6]", "value": "36 ± 2", "unit": "µM"}, {"measurement": "dH", "setting": "[6]", "value": "9.33 ± 0.527", "unit": "kcal/mol"}, {"measurement": "koff", "setting": "[7]", "value": 400, "unit": "s⁻¹"}, {"measurement": "kon", "setting": "[7]", "value": "1.1e+07", "unit": "M⁻¹ s⁻¹"}, {"measurement": "Kd", "setting": "[8]", "value": "30 ± 16", "unit": "µM"}, {"measurement": "dH", "setting": "[8]", "value": "3.24 ± 0.432", "unit": "kcal/mol"}, {"measurement": "Kd", "setting": "[9]", "value": "2 ± 2", "unit": "µM"}, {"measurement": "dH", "setting": "[9]", "value": "8.77 ± 3.96", "unit": "kcal/mol"}]}, {"binder": "H104K-ACD (HSPB5-ACD with His-104 replaced by Lys) (domain or fragment, human, UniProt P02511 64-152, looked up, HSPB5 (alphaB-crystallin), human, alpha-crystallin domain, residues 64-152, with H104K; source: growth and purification similar to that of wild-type proteins (Jehle et al., 2009)) GLSEMRLEKDRFSVNLDVKHFSPEELKVKVLGDVIEVHGKKEERQDEHGFISREFHRKYRIPADVDPLTITSSLSSDGVLTVNGPRKQV", "values": [{"measurement": "Kd", "setting": "[10]", "value": "> 1000", "unit": "µM"}]}, {"binder": "H104Q-ACD (HSPB5-ACD with His-104 replaced by Gln) (domain or fragment, human, UniProt P02511 64-152, looked up, HSPB5 (alphaB-crystallin), human, alpha-crystallin domain, residues 64-152, with H104Q; source: growth and purification similar to that of wild-type proteins (Jehle et al., 2009)) GLSEMRLEKDRFSVNLDVKHFSPEELKVKVLGDVIEVHGKQEERQDEHGFISREFHRKYRIPADVDPLTITSSLSSDGVLTVNGPRKQV", "values": [{"measurement": "Kd", "setting": "[10]", "value": "100 to 500", "unit": "µM"}]}]}
